Experimental findings from US7326418B2, “Identification of novel factors that block programmed cell death or apoptosis by targeting JNK” (University of Chicago, priority 2001, dated 2008) are described below.

B1: Gadd45β: purified recombinant His6-tagged Gadd45β protein; also used generically for the recombinant Gadd45β proteins (protein, UniProt O75293 1-160, looked up)
Growth arrest and DNA …: MTLEELVACDNAAQKMQTVTAAVEELLVAAQRQDRLTVGVYESAKLMNVDPDSVVLCLLAIDEEEEDDIALQIHFTLIQSFCCDNDINIVRVSGMQRLAQLLGEPAETQGTTEARDLHCLLVTNPHTDAWKSHGLVEVASYCEESRGNNQWVPYISLQER
modifications: His6 tag
notes: purified recombinant His6-tagged Gadd45β protein; also used generically for the recombinant Gadd45β proteins
B2: His6-Gadd45β: human full-length Gadd45β purified from E. coli as His6-tagged protein (protein, UniProt O75293 1-160, looked up)
chain: MTLEELVACDNAAQKMQTVTAAVEELLVAAQRQDRLTVGVYESAKLMNVDPDSVVLCLLAIDEEEEDDIALQIHFTLIQSFCCDNDINIVRVSGMQRLAQLLGEPAETQGTTEARDLHCLLVTNPHTDAWKSHGLVEVASYCEESRGNNQWVPYISLQER
modifications: full-length His6 tag
notes: human full-length Gadd45β purified from E. coli as His6-tagged protein
B3: GST-Gadd45β: full-length murine Gadd45β directly fused to GST, purified from E. coli (protein)
chain: MTLEELVASDNAVQKMQAVTAAVEQLLVAAQRQDRLTVGVYEAAKLMNVDPDSVVLCLLAIDEEEEDDIALQIHFTLIQSFCCDNDIDIVRVSGMQRLAQLLGEPAETLGTTEARDLHCLLVTNCHTDSWKSQGLVEVASYCEESRGNNQWVPYISLEER
modifications: left off: a dimerising Fc or GST
notes: full-length murine Gadd45β directly fused to GST, purified from E. coli

In the data set the target is T1, ASK1 (Homo sapiens, UniProt Q99683).
T1 sequence (Q99683 1-1374): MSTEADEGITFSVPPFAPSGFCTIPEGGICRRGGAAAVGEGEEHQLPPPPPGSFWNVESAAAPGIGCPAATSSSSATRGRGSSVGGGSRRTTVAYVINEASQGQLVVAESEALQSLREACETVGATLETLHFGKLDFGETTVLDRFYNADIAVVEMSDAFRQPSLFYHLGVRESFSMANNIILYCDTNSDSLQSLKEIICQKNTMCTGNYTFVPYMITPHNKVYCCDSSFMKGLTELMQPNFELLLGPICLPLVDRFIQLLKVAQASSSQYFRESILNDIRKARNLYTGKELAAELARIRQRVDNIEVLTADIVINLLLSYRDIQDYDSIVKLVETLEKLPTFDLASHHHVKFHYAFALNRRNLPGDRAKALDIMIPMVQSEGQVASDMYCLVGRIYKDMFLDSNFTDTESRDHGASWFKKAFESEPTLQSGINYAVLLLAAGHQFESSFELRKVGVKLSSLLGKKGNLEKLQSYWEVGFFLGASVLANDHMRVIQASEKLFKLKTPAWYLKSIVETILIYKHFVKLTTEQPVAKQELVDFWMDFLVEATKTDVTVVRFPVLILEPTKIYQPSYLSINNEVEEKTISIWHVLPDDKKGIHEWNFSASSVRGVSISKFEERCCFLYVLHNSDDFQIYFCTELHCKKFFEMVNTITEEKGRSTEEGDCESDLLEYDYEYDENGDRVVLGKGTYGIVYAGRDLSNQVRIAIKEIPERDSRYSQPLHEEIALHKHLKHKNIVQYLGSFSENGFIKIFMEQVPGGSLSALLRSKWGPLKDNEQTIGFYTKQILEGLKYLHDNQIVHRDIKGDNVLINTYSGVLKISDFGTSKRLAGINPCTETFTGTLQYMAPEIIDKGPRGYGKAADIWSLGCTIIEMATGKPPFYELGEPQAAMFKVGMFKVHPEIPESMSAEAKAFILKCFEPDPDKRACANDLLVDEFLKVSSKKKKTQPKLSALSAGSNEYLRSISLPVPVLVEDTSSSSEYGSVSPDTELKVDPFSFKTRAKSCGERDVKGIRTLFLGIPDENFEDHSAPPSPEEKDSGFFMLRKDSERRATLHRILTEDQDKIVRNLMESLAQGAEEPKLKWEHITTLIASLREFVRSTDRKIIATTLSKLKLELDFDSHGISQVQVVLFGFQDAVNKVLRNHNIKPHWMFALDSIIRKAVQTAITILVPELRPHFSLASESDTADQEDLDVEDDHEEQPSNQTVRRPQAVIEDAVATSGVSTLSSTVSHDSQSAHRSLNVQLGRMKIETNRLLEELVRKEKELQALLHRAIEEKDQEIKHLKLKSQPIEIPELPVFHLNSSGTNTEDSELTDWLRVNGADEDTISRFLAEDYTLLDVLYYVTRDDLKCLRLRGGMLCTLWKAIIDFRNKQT
Description: Kinase assay of immunoprecipitated FLAG-ASK1 with recombinant Gadd45β proteins. The class given is biochemical. Also on record: expressed in transfected cells; host or cells: HEK-293; anti-FLAG immunoprecipitate. The settings on record: in vitro, even at high concentrations. On the procedure:
Next, the functional consequences, in vitro, of the physical interactions of Gadd45β with kinases in the JNK pathway were assessed. Murine and human, full-length Gadd45J3 proteins were purified from E. coli as GST-Gadd45β and His6-tagged Gadd45β (His6 disclosed as SEQ ID NO: 46), respectively, according to standard procedures. Prior to employing these proteins in in vitro assays, purity of all recombinant polypeptides was assured by >98%, by performing Coomassie blue staining of SDS polyacrylamide gels. Then, the ability of these proteins, as well as of control GST and His6-EF3 (His6 disclosed as SEQ ID NO: 46)proteins, to inhibit kinases in the JNK pathways was monitored in vitro. FLAG-tagged JNKK2, JNKK1, MKK3, and ASK1 were immunoprecipitated from transiently transfected 293 cells using anti-FLAG antibodies and pre-incubated for 10 minutes with increasing concentrations of recombinant proteins, prior to the addition of specific kinase substrates (i.e. GST-JNK1 with JNKK1 and JNKK2; GST-p38[…] with MKK3; GST-JNNK1 or GST-JNKK2 with ASK1). […] These findings indicate that, upon binding to Gadd45β, JNKK2 is effectively inactivated.
A question was whether Gadd45β inhibited active MKK7, in vitro. FLAG-MKK7 was immunoprecipitated from TNFα-treated or untreated 293 cells, and kinase assays were performed in the presence of purified His6-Gadd45β (His6 disclosed as SEQ ID NO: 46), GST-Gadd45β, or control proteins (FIG. 28d; see also FIG. 28g). […] Consistent with the in vivo findings (FIG. 27), the inhibitory activity of Gadd45β was specific. […] Indeed, the effects of Gadd45β on MKK7 phosphorylation by TNFα may be due inhibition of the MKK7 ability to auto-phoshorylate and/or to serve as substrate for upstream kinases. Altogether, the findings identify MKK7 as a target of Gadd45β, and of NF-[…]B, in the JNK cascade. Of interest, MKK7 is a selective activator of JNK, and its ablation abolishes JNK activation by TNFα. Thus, blockade of MKK7 is sufficient on its own to explain the effects of Gadd45β on JNK signaling—i.e. its specific and near-complete suppression of this signaling. […]
Consider B1, for which the “effect on ASK1 kinase activity” value is “did not hamper”.

In the case of B2, the “effect on ASK1 kinase activity” value is on record as “neither GST-Gadd45β nor His6-Gadd45β (His6 disclosed as SEQ ID NO: 46) had significant effects”.

As for B3, the “effect on ASK1 kinase activity” value is listed as “neither GST-Gadd45β nor His6-Gadd45β (His6 disclosed as SEQ ID NO: 46) had significant effects”.
